Experimental data: the supplement of paper PMC7877785
± gives the uncertainty stated by the source.

Assay: self-splicing fitness, log relative to wild type (ln ratio); higher = more splicing; Tetrahymena group I intron in knt gene, E. coli kanamycin selection, DiMSum; sequences stand for … in CUCUCU…GGAGGGAAAAGUUAUCAGGCAUGCACCUGGUAGCUAGUCUUUAAACCAAUAGAUUGCAUCGGUUUAAAAGGCAAGACCGUCAAAUUGCGGGAAAGGGGUCAACAGCCGUUCAGUACCAAGUCUCAGGGGAAACUUUGAGAUGGCCUUGCAAAGGGUAUGGUAAUAAGCUGACGGACAUGGUCCUAACCACGCAGCCAAGUCCUAAGUCAACAGAUCUUCUGUUGAUAUGGAUGCAGUUCACAGACUAAAUGUCGGUCGGGGAAGAUGUAUUCUUCUCAUAAGAUAUAGUCGGACCUCUCCUUAAUGGGAGCUAGCGGAUGAAGUGAUGCAACACUGGAGCCGCUGGGAACUAAUUUGUAUGCGAAAGUAUAUUGAUUAGUUUUGGAGUACUCGUGGUCG
Outline: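 Fitness was computed with DiMSum as the error-weighted combination of replicate fold changes, kanamycin versus none, each normalised to wild type. The library randomised all eight intron nucleotides of the P1ex region, with the intron placed in the knt kanamycin-resistance gene on pET-22b(+) in E. coli BL21(DE3). Six replicate transformations were grown overnight at 37°C or 30°C on LB agar with or without 25 μg/mL kanamycin, plus 100 μg/mL carbenicillin, 50 μM IPTG and 0.2% rhamnose. Pooled colonies were amplicon-sequenced on an Illumina HiSeq 2500.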

| Sequence | self-splicing fitness (ln) (30 °C) | self-splicing fitness (ln) (37 °C) |
| --- | --- | --- |
| UGUUAGCAAUAUUACGCUAG | -1.94 ± 0.5 | -1.4 ± 0.47 |
| UUCGAGCAAUAUUACGCUGG | -0.924 ± 0.28 | -1.02 ± 0.42 |
| UUCUAGCAAUAUUACGUCUC | -3.85 ± 0.37 | -2.23 ± 0.25 |
| AGGCAGCAAUAUUACGAUUA | -1.12 ± 0.1 | -0.936 ± 0.095 |
| AUAGAGCAAUAUUACGGCAC | -1.75 ± 0.14 | -0.686 ± 0.2 |
| AAAUAGCAAUAUUACGGUAA | -2.14 ± 0.21 | -1.5 ± 0.16 |
| CUAGAGCAAUAUUACGAUCG | 0.45 ± 0.066 | 0.245 ± 0.088 |
| CCGUAGCAAUAUUACGUCGG | -3.57 ± 0.17 | -3.02 ± 0.23 |
| CCCGAGCAAUAUUACGCCGG | -3.9 ± 0.37 | -2.23 ± 0.34 |
| AAAGAGCAAUAUUACGACGG | -3.27 ± 0.29 | -2.83 ± 0.43 |
| AAACAGCAAUAUUACGGUAC | -3.52 ± 0.2 | -2.75 ± 0.26 |
| CAGGAGCAAUAUUACGUGCG | -1.56 ± 0.079 | -0.807 ± 0.088 |
| UCCCAGCAAUAUUACGUCCC | -3.08 ± 0.25 | -0.845 ± 0.26 |
| CGGAAGCAAUAUUACGGUAC | -3.17 ± 0.27 | -1.93 ± 0.25 |
| GGAUAGCAAUAUUACGUGUU | -3.31 ± 0.17 | -1.63 ± 0.14 |
| UCGAAGCAAUAUUACGGCCA | -1.64 ± 0.16 | 0.195 ± 0.14 |
| CUAAAGCAAUAUUACGCAGA | -3.64 ± 0.2 | -3.29 ± 0.42 |
| CUCAAGCAAUAUUACGAGAC | -3.27 ± 0.21 | -2.35 ± 0.23 |
| CUCUAGCAAUAUUACGGUUA |  | -3.24 ± 0.29 |
| UUGUAGCAAUAUUACGGUUA | -1.41 ± 0.14 | -0.784 ± 0.13 |
| CAGCAGCAAUAUUACGGAAG | -0.307 ± 0.054 | -0.29 ± 0.068 |
| CGUUAGCAAUAUUACGUUUC | -3.28 ± 0.2 | -2.19 ± 0.21 |
| AGUUAGCAAUAUUACGUUUC | -3.37 ± 0.34 |  |
| UAGUAGCAAUAUUACGGUAG | -2.56 ± 0.18 | -1.73 ± 0.22 |
| CGUGAGCAAUAUUACGGCUU | -3.31 ± 0.18 | -3.81 ± 0.33 |

| Sequence | self-splicing fitness (ln) (30 °C) | self-splicing fitness (ln) (37 °C) |
| --- | --- | --- |
| UCGAAGCAAUAUUACGUUUA | -3.07 ± 0.45 | -0.87 ± 0.29 |
| CGGGAGCAAUAUUACGCGCC |  | -1.51 ± 0.43 |
| CAAGAGCAAUAUUACGAGAC | -2.43 ± 0.37 | -1.93 ± 0.35 |
| UUGAAGCAAUAUUACGCGUC | -3.32 ± 0.33 | -1.02 ± 0.33 |
| CAACAGCAAUAUUACGUUAU | -3.16 ± 0.13 | -1.94 ± 0.13 |
| AGUAAGCAAUAUUACGGCAC | -2.04 ± 0.27 | -0.545 ± 0.2 |
| GCUCAGCAAUAUUACGAGCG | -2.81 ± 0.16 | -0.923 ± 0.11 |
| UUAUAGCAAUAUUACGCUGG | -1.35 ± 0.14 | -0.828 ± 0.12 |
| ACAUAGCAAUAUUACGAAAG | -3.36 ± 0.22 | -2.06 ± 0.23 |
| CACAAGCAAUAUUACGAUGA | -2.99 ± 0.11 | -1.21 ± 0.09 |
| GCGCAGCAAUAUUACGUUAA | -1.45 ± 0.089 | -0.728 ± 0.088 |
| CAGAAGCAAUAUUACGGCGA | -1.43 ± 0.15 | -1.5 ± 0.18 |
| UCACAGCAAUAUUACGCCUG | -1.21 ± 0.11 | -0.438 ± 0.12 |
| AAAUAGCAAUAUUACGGUUC | -1.21 ± 0.11 | -0.851 ± 0.16 |
| CAGUAGCAAUAUUACGACCC | -3.52 ± 0.44 | -0.507 ± 0.34 |
| AAAAAGCAAUAUUACGCCGC | -2.19 ± 0.43 | -2.01 ± 0.33 |
| CGUGAGCAAUAUUACGGCUG | -0.246 ± 0.073 | 0.0364 ± 0.094 |
| UUUCAGCAAUAUUACGGGGC | -2.91 ± 0.18 | -3.35 ± 0.31 |
| UGCGAGCAAUAUUACGCGUC | -2.18 ± 0.26 |  |
| CCUGAGCAAUAUUACGCGUG | -3.05 ± 0.19 | -2.82 ± 0.22 |
| CGGAAGCAAUAUUACGGGAU | -3.67 ± 0.42 | -2.48 ± 0.25 |
| GGAGAGCAAUAUUACGUUCC |  | -2 ± 0.28 |
| CAAGAGCAAUAUUACGUAUG | -3.02 ± 0.13 | -1.36 ± 0.15 |
| UCUGAGCAAUAUUACGCACU | -4.18 ± 0.39 | -2.1 ± 0.28 |
| UGAAAGCAAUAUUACGGGGA | -1.92 ± 0.21 | -0.977 ± 0.19 |

| Sequence | self-splicing fitness (ln) (30 °C) | self-splicing fitness (ln) (37 °C) |
| --- | --- | --- |
| UUGCAGCAAUAUUACGGUCU | -2.05 ± 0.092 | -1.26 ± 0.092 |
| UGACAGCAAUAUUACGACAG | -0.934 ± 0.065 | 0.0335 ± 0.084 |
| UCAGAGCAAUAUUACGCAGA | -2.96 ± 0.27 | -1.47 ± 0.21 |
| CGUCAGCAAUAUUACGAACG | -2.55 ± 0.17 | -1.32 ± 0.18 |
| CGGCAGCAAUAUUACGACAA | -1.99 ± 0.1 | -2.28 ± 0.18 |
| AACAAGCAAUAUUACGCACA | 0.157 ± 0.071 | -0.163 ± 0.094 |
| AGUGAGCAAUAUUACGAAAC | -2.97 ± 0.38 | -1.2 ± 0.33 |
| AGUGAGCAAUAUUACGUUAC | -3.72 ± 0.47 |  |
| CUCAAGCAAUAUUACGGAAA | -3.21 ± 0.28 | -2.6 ± 0.25 |
| UACUAGCAAUAUUACGGAUU | -2.82 ± 0.12 | -1.56 ± 0.13 |
| GCAUAGCAAUAUUACGACGU | -0.0199 ± 0.12 | 0.152 ± 0.12 |
| CCACAGCAAUAUUACGUGCG | -2.79 ± 0.11 | -1.72 ± 0.12 |
| UCUGAGCAAUAUUACGAAAU | -4.41 ± 0.46 | -2.24 ± 0.4 |
| GCGAAGCAAUAUUACGGCGG | -2.38 ± 0.19 | -1.34 ± 0.27 |
| UGCAAGCAAUAUUACGAAGU | -3 ± 0.49 |  |
| GCCCAGCAAUAUUACGCCUU | -1.02 ± 0.081 | 0.189 ± 0.088 |
| CCAAAGCAAUAUUACGUACG | -0.00591 ± 0.081 | 0.0861 ± 0.084 |
| GUGGAGCAAUAUUACGUCAC | -3.5 ± 0.39 | -1.99 ± 0.26 |
| CAAGAGCAAUAUUACGCGAU | -2.62 ± 0.22 | -2.51 ± 0.49 |
| CCGAAGCAAUAUUACGCGCC | -2.58 ± 0.23 | -2.27 ± 0.3 |
| GGGCAGCAAUAUUACGAAGC | -1.64 ± 0.077 | -0.939 ± 0.09 |
| GACAAGCAAUAUUACGCGAG | -1.25 ± 0.11 | -2.03 ± 0.15 |
| UCAAAGCAAUAUUACGGCCG | -0.434 ± 0.1 | 0.158 ± 0.17 |
| UCCUAGCAAUAUUACGGGUU | -2.26 ± 0.13 | -1.78 ± 0.15 |
| CACUAGCAAUAUUACGGGAC | -3.86 ± 0.21 | -1.7 ± 0.18 |

| Sequence | self-splicing fitness (ln) (30 °C) | self-splicing fitness (ln) (37 °C) |
| --- | --- | --- |
| CCAUAGCAAUAUUACGACGA | -3.14 ± 0.21 | -1.42 ± 0.14 |
| GAAAAGCAAUAUUACGGCUU | -0.227 ± 0.082 | 0.0447 ± 0.096 |
| CCCCAGCAAUAUUACGCGAU | -4.32 ± 0.25 | -2.36 ± 0.28 |
| AUCUAGCAAUAUUACGCUCC | -0.7 ± 0.18 | -0.736 ± 0.25 |
| UAGCAGCAAUAUUACGCUCG | -1 ± 0.12 | 0.142 ± 0.14 |
| UUUAAGCAAUAUUACGCUGA | -2.47 ± 0.2 | -0.978 ± 0.15 |
| CAGCAGCAAUAUUACGCAGU | -3.81 ± 0.18 | -3.35 ± 0.22 |
| CGGUAGCAAUAUUACGCCCA | 0.153 ± 0.1 | 0.145 ± 0.17 |
| UGAUAGCAAUAUUACGUCCA | 0.015 ± 0.09 | 0.154 ± 0.12 |
| UCUGAGCAAUAUUACGCGUC |  | -2.49 ± 0.48 |
| GGGUAGCAAUAUUACGACCU | -2.3 ± 0.36 |  |
| CCAAAGCAAUAUUACGCCCU | -3.49 ± 0.42 | -3.01 ± 0.27 |
| CAGUAGCAAUAUUACGGGGU | -4.35 ± 0.32 | -2.1 ± 0.22 |
| CGUAAGCAAUAUUACGCCUG | -1.21 ± 0.11 | -0.643 ± 0.12 |
| AGCUAGCAAUAUUACGGGAU | -2.04 ± 0.11 | -1.49 ± 0.13 |
| AGACAGCAAUAUUACGGUAA | -2.04 ± 0.11 | -1.37 ± 0.085 |
| AUCCAGCAAUAUUACGCUCU | 0.335 ± 0.14 | 0.709 ± 0.15 |
| GUCCAGCAAUAUUACGGCCU | -3.36 ± 0.2 | -1.14 ± 0.13 |
| CCCCAGCAAUAUUACGCCGU | -3.04 ± 0.16 | -2.23 ± 0.21 |
| UUAAAGCAAUAUUACGUACA | 0.237 ± 0.088 | 0.0455 ± 0.12 |
| CCGUAGCAAUAUUACGCACA | -3.79 ± 0.31 | -1.44 ± 0.36 |
| CUGGAGCAAUAUUACGAUAG | -2.16 ± 0.25 | -1.38 ± 0.22 |
| CAUCAGCAAUAUUACGAUUA | -0.634 ± 0.091 | -0.682 ± 0.085 |
